We go through two molecules from article PMC3136621 (Analytical chemistry, 2011).

Data set [1] has as its target yeast alcohol dehydrogenase (ADH) from Saccharomyces cerevisiae (Saccharomyces cerevisiae) (UniProt P00330). The data set is described as follows: native MS.
The data set “native MS” concerns the molecule itself. The data set is described as follows: native MS.

One may read the stoichiometry N as the number of molecules, sites or subunits per partner or assembly. For “yeast alcohol dehydrogenase (ADH) from Saccharomyces cerevisiae (from UniProt P00330 1-348) (enzyme)”, the stoichiometry N in data set [1] was 4.

B1: Fenna-Matthews-Olson (FMO) antenna protein from the green sulfur bacterium Chlorobaculum tepidum (natural protein, UniProt Q46393 1-366, looked up)
chain: MALFGSNDVTTAHSDYEIVLEGGSSSWGKVKARAKVNAPPASPLLPADCDVKLNVKPLDPAKGFVRISAVFESIVDSTKNKLTIEADIANETKERRISVGEGMVSVGDFSHTFSFEGSVVNLFYYRSDAVRRNVPNPIYMQGRQFHDILMKVPLDNNDLIDTWEGTVKAIGSTGAFNDWIRDFWFIGPAFTALNEGGQRISRIEVNGLNTESGPKGPVGVSRWRFSHGGSGMVDSISRWAELFPSDKLNRPAQVEAGFRSDSQGIEVKVDGEFPGVSVDAGGGLRRILNHPLIPLVHHGMVGKFNNFNVDAQLKVVLPKGYKIRYAAPQYRSQNLEEYRWSGGAYARWVEHVCKGGVGQFEILYAQ
Consider B1, for which, in the data set “native MS”, the “stoichiometry N” value stood at 3.
